Experimental data published in publication PMC5435687 (Scientific Reports, 2017).

What was measured:
SH-SY5Y cells = test: Flow cytometry quantification of cellular uptake and clearance; assay type: cell-based, human; details: 500 nM, up to 3 days, 500 nM to 2.5 µM for 5 h
Experimental: SH-SY5Y cells were grown in a 1:1 mixture of minimal essential medium (MEM) and nutrient mixture F-12 Ham supplemented with 10% heat-inactivated fetal bovine serum, 1% MEM non-essential amino acids and 2 mM L-glutamine. The cells were detached (trypsin-EDTA 0.05%, 5 minutes) and passaged twice a week. Cells were plated 1day prior to experiments in either flat-bottomed 96 well plates (Nunc; 60,000 cells/well for experiments <1day and 20,000 cells/well for experiments ≥1day) for flow cytometry or in glass-bottomed culture dishes (MatTek; 25,000 cells/14 mm dish) for microscopy.
Flow cytometry was used to quantify cellular uptake. […] All samples were kept on ice until they were analysed on a Guava EasyCyte 8HT (Millipore, Darmstadt, Germany) that automatically retrieves samples from a 96-well plate. […] The cell counting gate was determined using propidium iodide (0.5 µM, not washed away prior to analysis) and calcein-AM (10 nM, 15 min staining) to distinguish live and dead cells, and for each sample 5,000 cells from within the live gate were counted and analysed. HF488, AlexaFluor488, EGFP and calcein-AM were excited by a 488 nm laser and their fluorescence was detected through a 525/30 nm filter. Propidium iodide and mRFP were excited by the 488 nm laser but detected through a 692/46 nm filter. HF647 and AlexaFluor647 were excited with a 635 nm laser and detected through a 661/19 nm filter. […]

[1] = SDS-PAGE of peptide solutions, band quantification (monomer fraction); assay type: physicochemical; details: 1 µM HF488-labelled peptide in cell culture medium after HFIP pre-treatment; NuPAGE 4–12% Bis-Tris gel, fluorescence scan, ImageJ
Experimental: The lyophilized Aβ peptide powders were dissolved in hexafluoro-2-propanol to disrupt any aggregates[26] and monomerize the peptide. The solutions were vortexed briefly and aliquoted at 4 °C. The solvent in each aliquot was evaporated at 37 °C for 60 min using a RVC 2–18 CD Rotational Vacuum concentrator (Martin Christ, Germany). The remaining peptide films were snap frozen in liquid nitrogen and kept at −80 °C until further use. For concentration determinations the peptide film was dissolved in 1% ammonium hydroxide (v/v) and the absorption of the dye label was measured on a Cary 4000 UV-Vis Spectrophotometer (Agilent Technologies, Santa Clara, CA, US). Extinction coefficients of 70,000 M^−1cm^−1 at 504 nm and 250 000 M^−1cm^−1 at 649 nm was used for the HF488 and HF647 dye labels, respectively, according to the information provided by the manufacturer. Prior to each experiment one peptide film was dissolved in a small volume 1% ammonium hydroxide (v/v) and diluted with cell culture medium supplemented with 30 mM HEPES. […] The HF488 dye was excited by a 488 nm laser and emission detected through a 520/40 nm filter. After background correction, the gel bands corresponding to monomer, dimer and trimer species were quantified in ImageJ (NIH, Bethesda, Maryland, US) by integrated intensity of the respective bands.

[2] = system: SH-SY5Y cells transfected with AP180-C; test: Uptake in cells overexpressing AP180-C; assay type: cell-based, human; details: SH-SY5Y 24 h post transfection; HF488-labelled Aβ 1 µM 1 h or AF647-Trf 5 µg/ml 5 min; low and high mRFP gates; N = 2, n = 2–4
Experimental: Flow cytometry was used to quantify cellular uptake. The samples were washed in serum free medium (1x for experiments including only Aβ and 3x for experiments with Trf) prior to incubation with Aβ peptides and/or other reagents in serum free medium supplemented with 30 mM HEPES and 2% B-27. For experiments including Trf B-27 was omitted, as outlined above. Prior to analysis, the cells were washed 1x (for experiments including only Aβ) or 3x (for experiments including Aβ and dextran 10 kDa or Trf) in serum free medium, detached by trypsin-EDTA for 10 min followed by addition of FBS-supplemented cell culture medium to inhibit further proteolytic degradation. All samples were kept on ice until they were analysed on a Guava EasyCyte 8HT (Millipore, Darmstadt, Germany) that automatically retrieves samples from a 96-well plate. In order to exclude effects due to difference in delay time we used mixed order of analysis, loading only a few samples at a time with the remaining samples kept on ice. The cell counting gate was determined using propidium iodide (0.5 µM, not washed away prior to analysis) and calcein-AM (10 nM, 15 min staining) to distinguish live and dead cells, and for each sample 5,000 cells from within the live gate were counted and analysed. HF488, AlexaFluor488, EGFP and calcein-AM were excited by a 488 nm laser and their fluorescence was detected through a 525/30 nm filter. Propidium iodide and mRFP were excited by the 488 nm laser but detected through a 692/46 nm filter. HF647 and AlexaFluor647 were excited with a 635 nm laser and detected through a 661/19 nm filter. Compensation was performed to adjust for bleed through in experiments including mRFP. Mean cellular uptake was estimated as the average fluorescence intensity of all cells gated within the live region and all individual experiments were performed with three technical replicates (n = 3) unless else is stated. The average fluorescence intensity was baseline corrected by subtracting the signal for unstained cells. […]

Row | Substance | saturation of intracellular concentration (SH-SY5Y cells) | monomer fraction by SDS-PAGE band intensities [1] | uptake in AP180-C transfected cells compared to non-transfected cells [2]
1 | Aβ(1–40): Synthetic 40 residue amyloid-β peptide conjugated to HiLyte Fluor HF488 (or HF647) at the N-terminus, from Anaspec | neither Aβ(1–40) nor Aβ(1–42) appears to saturate | 84% | neither Aβ(1–40) nor Aβ(1–42) uptake was affected
2 | Aβ(1–42): Synthetic 42 residue amyloid-β peptide conjugated to HiLyte Fluor HF488 (or HF647) at the N-terminus, from Anaspec | neither Aβ(1–40) nor Aβ(1–42) appears to saturate | 86% | small but statistically significant increase
